Results published in US20240005439A1, “IMAGING METHODS AND RADIOTRACERS FOR USE THEREIN” (VESTLANDETS INNOVASJONSSELSKAP AS (VIS), priority 2020, published 2024).

Tests used:
Iohexol plasma clearance = assay type: in vivo, rats; conditions: for GFR relative to the initial control value (iohexol): CKD rats; for clearance: rat, plasma, 105 mg
[1] = Iohexol plasma clearance in mice; assay type: in vivo; conditions: mouse, intravenous, 100 μl (iohexol diluted 1:10 from stock solution), male C3H mice, read-out: GFR with the iohexol plasma clearance method
Protocol: Male mice (C3H, n=8) anesthetized with isoflurane were injected i.v. in the tail vein with 100 μl iohexol (diluted 1:10 from stock solution). 15 minutes following the injection, the mice were re-anesthetized with isoflurane and were kept anesthetized until termination of the experiments. Blood samples (each 20 μl) were collected from the retro-orbital space at 15, 30, 45 and 60 minutes.
Iohexol clearance was calculated by a bi-exponential method as: GFR=Dose/AUC, where AUC is the area under the plasma iohexol concentration curve. In addition, the slope of the second mono-exponential phase of the plasma disappearance curve for iohexol (k) was calculated using blood samples taken at 60, 90, 120, and 180 minutes.
For measurement of iohexol, all blood samples were centrifuged at 2000 g for collection of plasma. Plasma samples (5 μl from rats and 1 μl from mice) were immediately diluted 7.5-60 times by 0.1% (v/v) trifluoroacetic acid (TFA) in water and their iohexol concentrations were measured by two-dimensional HPLC using the Thermo Scientific™ Dionex™ UltiMate™ […] Rapid Separation series hardware, column switching and Chromeleon Chromatography Data System software (7.2.10). […] Both columns were washed separately by 99.9% acetonitrile/0.1% TFA, re-equilibrated in 0.1% TFA in water and ready for the next sample 9 minutes after injection. […]

[2] = Stability and plasma protein binding of labelled proteins by SEC-HPLC; assay type: physicochemical; conditions: high resolution size exclusion chromatography
Protocol: The stability and plasma protein binding of stock solutions of ^18F-cytochrome C and ^124I-cystatin C was evaluated by high resolution size exclusion chromatography (SEC-HPLC) after 12 h storage in room temperature and after 8 days of storage in fridge (4° C.).

Mouse PET-CT GFR = assay type: in vivo; conditions: male C3H mice
Protocol: All animals were scanned using the same scanner, anesthesia procedure, monitoring and positioning as mentioned above. First, CT semicircular scans (same settings as contrast CT) were acquired from the lower edge of the ribs to the pelvis for anatomical reference and attenuation correction for PET. Following CT, a 10-minute dynamic PET acquisition was initiated, which was started 30 seconds before the bolus injection (30 sec duration of the injection) of 5-10 MBq ^18F-cytochrome C diluted in 1 ml saline through a tail vein catheter. […]
In more detail, 6 input function candidates were generated from 6 sphere-VOIs with diameters of 5, 6, 7, 8, 9, and 10 mm centered on the maximal signal intensity from the vessels and used for regression analyses to obtain an unbiased estimate of the area under the input function (AUC). […] An unbiased AUC was obtained from the regression analysis using a VOI-volume (x in regression equation) corresponding to a blood vessel diameter of 2.41 mm as measured by the ruler function with the software on the contrast CT images (n=8 images from 8 rats, SD=0.02). […] The auto segmentation tool was used to collect the ^18F-signals from both kidneys at 5.5 minutes using thresholds that gave VOI-volumes that matched the kidney volumes as measured by contrast CT. […]

[3] = PET GFR scanning (kidney activity divided by AUC); assay type: in vivo, rats; conditions: for GFR relative to the initial control value (PET-CT): CKD rats
Protocol: (§1) All animals were scanned using the same scanner, anesthesia procedure, monitoring and positioning as mentioned above. First, CT semicircular scans (same settings as contrast CT) were acquired from the lower edge of the ribs to the pelvis for anatomical reference and attenuation correction for PET. Following CT, a 10-minute dynamic PET acquisition was initiated, which was started 30 seconds before the bolus injection (30 sec duration of the injection) of 5-10 MBq ^18F-cytochrome C diluted in 1 ml saline through a tail vein catheter. Images were reconstructed in 1-5 coincidence mode using the Tera-Tomo 3D reconstruction algorithm (Mediso) with 4 iterations/6 subsets, corrected for attenuation and scatter with a resulting 0.4 mm^3 voxel size. The PET acquisition was reconstructed to 15 timeframes: […]; 6×30 s; 3×120 s.
SD male rats (n=8) were fed by 0.35% adenine in the chow (Altromin, Denmark) for 7 weeks to induce chronic kidney disease (CKD). PET-CT GFR scanning was performed at baseline and at 3, 5 and 7 weeks after initiation of adenine feeding. Iohexol clearance (described below) was performed at baseline and after 3, 5 and 7 weeks of adenine feeding. Blood samples were taken every second week for creatinine measurements.
All images were analyzed using Inter View Fusion version 3.01.021.0000 (Mediso), and CT and PET images were automatically aligned. The sphere selection volume of interest (VOI) function was used to collect the signal from the large abdominal vessels close to the distal aorta branch level in the frame with the highest intensity and copied to all other frames to obtain the ^18F-cytochrome C intensity as a function of time (input function).
In more detail, 6 input function candidates were generated from 6 sphere-VOIs with diameters of 5, 6, 7, 8, 9, and 10 mm centered on the maximal signal intensity from the vessels and used for regression analyses to obtain an unbiased estimate of the area under the input function (AUC). […] An unbiased AUC was obtained from the regression analysis using a VOI-volume (x in regression equation) corresponding to a blood vessel diameter of 2.41 mm as measured by the ruler function with the software on the contrast CT images (n=8 images from 8 rats, SD=0.02). This approach was verified by ex vivo blood and kidney samples in a separate set of rats (n=8), i.e. the ^18F-clearances obtained by ex vivo sampling were not different from those obtained by the PET images. The same approach was adopted for mice using sphere diameters of 1, 1.5, 2, 2.5, 3, 3.5, and 4 mm and abdominal vessel diameter of 0.9 mm (n=8 mice, SD=0.07). The auto segmentation tool was used to collect the ^18F-signals from both kidneys at 5.5 minutes using thresholds that gave VOI-volumes that matched the kidney volumes as measured by contrast CT. The total kidney ^18F-activity was calculated as the mean VOI-intensity multiplied with the kidney cortex volume (total kidney volume from CT×2/3) and divided by AUC to obtain GFR.

[4] = parameters: species or system rats; conditions: rat, in vivo
Protocol: as §1
To investigate the initial distribution, uptake and excretion of ^18F-cytochrome C in the body, two rats were dynamically scanned by PET-CT for 30 minutes. […] The ^18F signal peaked over the large abdominal vessels in less than 1 minute and appeared in the bladder in less than 10 minutes. After 10 minutes, the bladder signal increased exponentially and the kidney signal leveled out reflecting urinary excretion of ^18F-cytochrome C breakdown products.

In the case of CC(=O)N(CC(O)CO)c1c(I)c(C(=O)NCC(O)CO)c(I)c(C(=O)NCC(O)CO)c1I (stereo not shown) [Iohexol], the “GFR relative to the initial control value (iohexol)” value (Iohexol plasma clearance; 3 weeks of adenine) is reported as −50%, the “GFR relative to the initial control value (iohexol)” value (Iohexol plasma clearance; 7 weeks of adenine) is reported as −20% and the “GFR Iohexol/100 g” value (Iohexol plasma clearance; SD female rats (n = 6)) is reported as 0.73 ± 0.07 ml/min · 100 g. The “k, plasma disappearance rate constant of iohexol for the second mono-exponential phase” value (“k, plasma disappearance rate constant” below) (Iohexol plasma clearance; SD female rats (n = 6)) was 0.026 ± 0.002 min⁻¹, the “iohexol-based GFR” value (Iohexol plasma clearance; SD females (n=6), FIG. 5D) was 2.3 ± 0.3 mL/min and the “GFR Iohexol/100 g” value (Iohexol plasma clearance; SD male rats (n = 8)) was 0.59 ± 0.06 ml/min · 100 g. For the same molecule, the “k, plasma disappearance rate constant” value (Iohexol plasma clearance; SD male rats (n = 8)) was 0.025 ± 0.002 min⁻¹, the “GFR Iohexol/100 g” value (Iohexol plasma clearance; Wistar male rats (n = 6)) was 0.64 ± 0.01 ml/min · 100 g and the “k, plasma disappearance rate constant” value (Iohexol plasma clearance; Wistar male rats (n = 6)) was 0.027 ± 0.002 min⁻¹. It also gave a clearance (Iohexol plasma clearance; intravenous, SD male rats, baseline before 0.35% adenine (CKD model), read-out: Mean GFR estimated from iohexol clearance) of 2.89 ± 0.14 mL/min, a clearance (Iohexol plasma clearance; iv, SD female rats (n = 6), read-out: GFR Iohexol (iohexol clearance)) of 2.25 ± 0.26 mL/min and a clearance (Iohexol plasma clearance; iv, SD male rats (n = 8), read-out: GFR Iohexol (iohexol clearance)) of 2.89 ± 0.12 mL/min. For the same molecule, the clearance (Iohexol plasma clearance; iv, Wistar male rats (n = 6), read-out: GFR Iohexol (iohexol clearance)) was 2.84 ± 0.34 mL/min and the clearance [1] was 0.51 ± 0.13 mL/min.

In the case of “^18F-cytochrome C: Cytochrome C from bovine heart labelled with [^18F]F-Py-TFP, comprising a 6-[^18F]fluoropyridine-3-carboxy group”, the “Dimer formation / protein binding (size exclusion HPLC elution pattern)” value (shortened to “Dimer formation / protein binding”) [2] is reported as “no sign of dimer formation or protein binding”, the “GFR measured with PET” value (Mouse PET-CT GFR) is reported as 0.55 ± 0.12 mL/min and the “GFR relative to the initial control value (PET-CT)” value ([3]; 3 weeks of adenine) is reported as −50%. For the same molecule, the “GFR relative to the initial control value (PET-CT)” value ([3]; 7 weeks of adenine) was −20%, the “GFR (PET)” value ([3]; SD female rats (n = 6)) was 1.88 ± 0.16 mL/min and the “GFR/100 g (PET)” value ([3]; SD female rats (n = 6)) was 0.61 ± 0.06 ml/min · 100 g rat. For the same molecule, the “PET-CT GFR” value ([3]; SD females (n=6), FIG. 5D) was 2.3 ± 0.3 mL/min, the “GFR (PET)” value ([3]; SD male rats (n = 8)) was 3.20 ± 0.12 mL/min and the “GFR/100 g (PET)” value ([3]; SD male rats (n = 8)) was 0.66 ± 0.07 ml/min · 100 g rat. For the same molecule, the “Mean GFR, PET-CT value” ([3]; SD male rats, baseline before 0.35% adenine (CKD model)) was 2.94 ± 0.12 mL/min, the “GFR (PET)” value ([3]; Wistar male rats (n = 6)) was 3.01 ± 0.35 mL/min and the “GFR/100 g (PET)” value ([3]; Wistar male rats (n = 6)) was 0.68 ± 0.11 ml/min · 100 g rat. The “Involvement of other organs such as liver and spleen” value [4] was “negligible involvement of other organs”, the “Time of ^18F signal appearance in the bladder” value ([4]; iv) was “less than 10 minutes” and the “Time of ^18F signal peak over the large abdominal vessels” value ([4]; iv) was “less than 1 minute”.

B1: unlabelled cystatin C: Human cystatin C purchased from Nordic BioSite, unlabelled (protein, UniProt P01034 27-146, looked up)
Cystatin-C: SSPGKPPRLVGGPMDASVEEEGVRRALDFAVGEYNKASNDMYHSRALQVVRARKQIVAGVNYFLDVELGRTTCTKTQPNLDNCPFHDQPHLKRKAFCSFQIYAVPWQGTMTLSKSTCQDA
With B1 the “Dimer formation / protein binding” value [2] was “appeared mainly as dimers”.

B2: ^124I-labelled cystatin C: Human cystatin C (Nordic BioSite) labelled with ^124I for PET by Iodo-Gen (protein, UniProt P01034 27-146, looked up)
Cystatin-C: B1 Cystatin-C
modifications: 124I label
notes: Human cystatin C (Nordic BioSite) labelled with ^124I for PET by Iodo-Gen
In the case of B2, the “Dimer formation / protein binding” value [2] is reported as “appeared mainly as dimers”.
